In patent publication US20170165338A1 one finds peptide exchange yield data, which are given here for 49 molecules.

Bounds are passed on as bounds.

In this assay the target is HLA-A*02 (human). As to the kind of experiment: UV-exchange b2m ELISA. In general terms: In an ELISA, binding on a coated surface is turned into a signal by an enzyme label.
Consider ILLDLTDNRL, for which the peptide exchange yield lay within 50 to 75%.

As for TMDSVLVTV, the peptide exchange yield fell in the range of 50 to 75%.

Regarding VLIDPQWVLTA, the peptide exchange yield was 50 to 75%.

FLLATEVVTV registered a peptide exchange yield of over 75%.

SQFPLPLAV returned a peptide exchange yield of 20 to 49%.

In the case of FLVDGSYSI, the peptide exchange yield was 50 to 75%.

Consider ALLERGELFV, for which the peptide exchange yield is 50 to 75%.

Consider SLFETAWEA, for which the peptide exchange yield was in the range of 50 to 75%.

With ILAPFSVDL, the peptide exchange yield fell in the range of 50 to 75%.

Molecule GIVAHIQEV came in with a peptide exchange yield of 50 to 75%.

With ALMAMLVYV, the peptide exchange yield lay in the range of 20 to 49%.

In turn, GLLPLLHRA came in with a peptide exchange yield of over 75%.

In the case of YLLDPSITL, the peptide exchange yield fell in the range of 50 to 75%.

Consider VLNPLITAV, for which the peptide exchange yield lay within 50 to 75%.

For the molecule ILFHGVFYA, the peptide exchange yield fell in the range of 50 to 75%.

GLSQITNQL gave a peptide exchange yield of 50 to 75%.

For the molecule RLMEENWNA, the peptide exchange yield was in the range of 50 to 75%.

QVIEDSTGV yielded a peptide exchange yield of 20 to 49%.

Regarding SLADTNSLAVV, the peptide exchange yield was in the range of 50 to 75%.

ALFENTPKA showed a peptide exchange yield of 20 to 49%.

KLEENGDLYL: the peptide exchange yield was over 75%.

For the molecule ALFDSLRHV, the peptide exchange yield lay in the range of 50 to 75%.

Consider FVDPNTQEKV, for which the peptide exchange yield lay in the range of 20 to 49%.

YTLDIPVLFGV came in with a peptide exchange yield of over 75%.

For ALSPSYLTV, the peptide exchange yield lay in the range of 50 to 75%.

LLYPEPWSV showed a peptide exchange yield of over 75%.

Take KLMPGTYTL: the peptide exchange yield is over 75%.

Consider SLFSDEFKV, for which the peptide exchange yield was 50 to 75%.

The molecule GIAGSLKTV registered a peptide exchange yield of 50 to 75%.

With ALNIATHVL, the peptide exchange yield lay in the range of 50 to 75%.

Molecule FLLPFSTVYL returned a peptide exchange yield of 50 to 75%.

In turn, ILAKDLFEI gave a peptide exchange yield of over 75%.

Consider KMVGLVVAI, for which the peptide exchange yield lay in the range of 50 to 75%.

Molecule AIQDEIRSV displayed a peptide exchange yield of 50 to 75%.

Regarding TLDEKVAEL, the peptide exchange yield lay within 50 to 75%.

SISDNVWEV came in with a peptide exchange yield of 50 to 75%.

FLGPRIIGL came in with a peptide exchange yield of 50 to 75%.

In turn, AMIEEVFEA yielded a peptide exchange yield of 20 to 49%.

For the molecule SLPNGKPVSV, the peptide exchange yield lay within 50 to 75%.

VQLDSIEDLEV gave a peptide exchange yield of 50 to 75%.

For ALQEELTEL, the peptide exchange yield is 50 to 75%.

Turning to SLATKIVEA, the peptide exchange yield fell in the range of 50 to 75%.

In turn, YIKTELISV gave a peptide exchange yield of 50 to 75%.

In turn, ILDHEVPSL displayed a peptide exchange yield of 50 to 75%.

LLDSVSRL came in with a peptide exchange yield of under 20%.

With TITETTVEV, the peptide exchange yield is 50 to 75%.

Turning to YLDLSHNQL, the peptide exchange yield is 50 to 75%.

LLFSRLCGA came in with a peptide exchange yield of over 75%.

On to HLLEGSVGV, for which the peptide exchange yield fell in the range of 50 to 75%.
